Patent US20140271603A1 (LABORATOIRE FRANCAIS DU FRACTIONNEMENT ET DES …, published 2014)
Blank lines part the entries; values can stand above or below the binder they belong to.

What was measured:
[1] = biological target: T1, C3 convertase of the alternative pathway (C3bBb) formed on C3b-coated wells (UniProt P01024 749-1663; P01024 23-667; P00751 260-764, limits assumed); experiment: cell-based or functional assay
[2] = biological target: T1, C3 convertase of the alternative …; experiment: cell-based or functional assay; remark: listed apart in the source

T1 sequence (P01024 749-1663 limits assumed, chain 1 of 3): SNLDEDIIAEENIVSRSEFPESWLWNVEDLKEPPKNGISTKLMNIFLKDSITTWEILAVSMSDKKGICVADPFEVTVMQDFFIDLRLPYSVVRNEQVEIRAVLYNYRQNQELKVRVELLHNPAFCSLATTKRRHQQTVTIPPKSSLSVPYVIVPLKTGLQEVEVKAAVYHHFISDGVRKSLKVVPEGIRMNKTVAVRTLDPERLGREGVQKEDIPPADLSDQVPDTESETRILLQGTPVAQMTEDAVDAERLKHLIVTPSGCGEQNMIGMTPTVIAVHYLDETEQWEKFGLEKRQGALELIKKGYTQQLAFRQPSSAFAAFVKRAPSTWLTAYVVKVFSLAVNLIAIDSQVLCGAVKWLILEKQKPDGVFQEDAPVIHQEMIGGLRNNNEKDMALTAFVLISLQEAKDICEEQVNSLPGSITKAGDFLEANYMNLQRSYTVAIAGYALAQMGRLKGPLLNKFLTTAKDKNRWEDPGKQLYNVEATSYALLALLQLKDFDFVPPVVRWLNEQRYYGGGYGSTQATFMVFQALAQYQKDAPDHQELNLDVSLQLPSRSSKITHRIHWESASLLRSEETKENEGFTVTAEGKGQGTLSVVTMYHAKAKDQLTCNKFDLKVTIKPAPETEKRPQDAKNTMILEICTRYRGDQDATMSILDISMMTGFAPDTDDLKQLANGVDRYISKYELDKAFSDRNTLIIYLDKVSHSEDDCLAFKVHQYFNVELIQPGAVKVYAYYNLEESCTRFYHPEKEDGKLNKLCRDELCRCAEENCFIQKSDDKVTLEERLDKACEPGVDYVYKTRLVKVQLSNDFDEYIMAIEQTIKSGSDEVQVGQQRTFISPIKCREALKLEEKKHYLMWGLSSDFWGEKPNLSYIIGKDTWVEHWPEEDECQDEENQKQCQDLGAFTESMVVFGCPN
T1 sequence (P01024 23-667 limits assumed, chain 2 of 3): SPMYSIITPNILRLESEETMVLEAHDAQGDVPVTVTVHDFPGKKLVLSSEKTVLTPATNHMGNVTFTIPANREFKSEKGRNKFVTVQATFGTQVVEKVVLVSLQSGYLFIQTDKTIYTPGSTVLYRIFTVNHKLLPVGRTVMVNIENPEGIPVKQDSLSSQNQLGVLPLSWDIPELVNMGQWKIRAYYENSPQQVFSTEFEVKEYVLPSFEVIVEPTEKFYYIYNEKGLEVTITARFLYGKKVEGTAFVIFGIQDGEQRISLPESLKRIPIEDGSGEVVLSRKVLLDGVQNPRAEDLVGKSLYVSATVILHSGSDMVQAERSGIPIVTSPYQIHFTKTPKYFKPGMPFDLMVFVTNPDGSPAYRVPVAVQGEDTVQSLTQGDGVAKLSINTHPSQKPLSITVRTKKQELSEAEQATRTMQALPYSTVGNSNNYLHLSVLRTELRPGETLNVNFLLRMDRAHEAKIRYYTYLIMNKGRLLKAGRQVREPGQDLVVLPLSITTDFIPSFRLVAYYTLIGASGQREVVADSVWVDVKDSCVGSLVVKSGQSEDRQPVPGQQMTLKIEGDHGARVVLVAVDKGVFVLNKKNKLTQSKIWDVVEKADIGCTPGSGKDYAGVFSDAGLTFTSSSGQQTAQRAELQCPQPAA
T1 sequence (P00751 260-764 limits assumed, chain 3 of 3): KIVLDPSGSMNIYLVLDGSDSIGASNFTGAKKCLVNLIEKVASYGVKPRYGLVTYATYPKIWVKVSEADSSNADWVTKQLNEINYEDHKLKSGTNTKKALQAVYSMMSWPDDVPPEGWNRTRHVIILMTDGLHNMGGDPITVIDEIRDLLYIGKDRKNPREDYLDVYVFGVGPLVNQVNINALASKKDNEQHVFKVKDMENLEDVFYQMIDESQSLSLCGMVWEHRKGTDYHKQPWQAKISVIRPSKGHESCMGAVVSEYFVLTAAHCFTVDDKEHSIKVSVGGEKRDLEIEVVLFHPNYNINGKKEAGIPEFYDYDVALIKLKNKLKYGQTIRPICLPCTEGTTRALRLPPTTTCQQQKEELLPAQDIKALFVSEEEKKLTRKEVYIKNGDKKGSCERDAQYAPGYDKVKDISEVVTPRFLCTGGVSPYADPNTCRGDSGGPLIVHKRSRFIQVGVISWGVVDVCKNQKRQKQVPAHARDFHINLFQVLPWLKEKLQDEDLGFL

IC50, acceleration of the dissociation of C3 convertase (culture supernatant HEK MD2-H402) [1]: 0.052 mg/L
B1: recombinant human factor H, H402 variant, produced in the HEK 293F cell line (other)
chain: EDCNELPPRRNTEILTGSWSDQTYPEGTQAIYKCRPGYRSLGNVIMVCRKGEWVALNPLRKCQKRPCGHPGDTPFGTFTLTGGNVFEYGVKAVYTCNEGYQLLGEINYRECDTDGWTNDIPICEVVKCLPVTAPENGKIVSSAMEPDREYHFGQAVRFVCNSGYKIEGDEEMHCSDDGFWSKEKPKCVEISCKSPDVINGSPISQKIIYKENERFQYKCNMGYEYSERGDAVCTESGWRPLPSCEEKSCDNPYIPNGDYSPLRIKHRTGDEITYQCRNGFYPATRGNTAKCTSTGWIPAPRCTLKPCDYPDIKHGGLYHENMRRPYFPVAVGKYYSYYCDEHFETPSGSYWDHIHCTQDGWSPAVPCLRKCYFPYLENGYNQNHGRKFVQGKSIDVACHPGYALPKAQTTVTCMENGWSPTPRCIRVKTCSKSSIDIENGFISESQYTYALKEKAKYQCKLGYVTADGETSGSITCGKDGWSAQPTCIKSCDIPVFMNARTKNDFTWFKLNDTLDYECHDGYESNTGSTTGSIVCGYNGWSDLPICYERECELPKIDVHLVPDRKKDQYKVGEVLKFSCKPGFTIVGPNSVQCYHFGLSPDLPICKEQVQSCGPPPELLNGNVKEKTKEEYGHSEVVEYYCNPRFLMKGPNKIQCVDGEWTTLPVCIVEESTCGDIPELEHGWAQLSSPPYYYGDSVEFNCSESFTMIGHRSITCIHGVWTQLPQCVAIDKLKKCKSSNLIILEEHLKNKKEFDHNSNIRYRCRGKEGWIHTVCINGRWDPEVNCSMAQIQLCPPPPQIPNSHNMTTTLNYRDGEKVSVLCQENYLIQEGEEITCKDGRWQSIPLCVEKIPCSQPPQIEHGTINSSRSSQESYAHGTKLSYTCEGGFRISEENETTCYMGKWSSPPQCEGLPCKSPPEISHGVVAHMSDSYQYGEEVTYKCFEGFGIDGPAIAKCLGEKWSHPPSCIKTDCLSLPSFENAIPMGEKKDVYKAGEQVTYTCATYYKMDGASNVTCINSRWTGRPTCRDTSCVNPPTVQNAYIVSRQMSKYPSGERVRYQCRSPYEMFGDEEVMCLNGNWTEPPQCKDSTGKCGPPPPIDNGDITSFPLSVYAPASSVEYQCQNLYQLEGNKRITCRNGQWSEPPKCLHPCVISREIMENYNIALRWTAKQKLYSRTGESVEFVCKRGYRLSSRSHTLRTTCWDGKLEYPTCAKR

IC50, acceleration of the dissociation of C3 convertase (culture supernatant HEK MD1-Y402) [1]: 0.0538 mg/L | IC50, acceleration of the dissociation of C3 convertase (culture supernatant HEK MD2-Y402) [1]: 0.0507 mg/L | IC50, acceleration of the dissociation of C3 convertase (culture supernatant HEK MD3-Y402) [1]: 0.0528 mg/L | IC50, acceleration of the dissociation of C3 convertase (sample: Purified FH HEK) [2]: 0.0506 mg/L
B4: recombinant human factor H, Y402 variant, produced in the HEK 293F cell line (other)
chain: EDCNELPPRRNTEILTGSWSDQTYPEGTQAIYKCRPGYRSLGNVIMVCRKGEWVALNPLRKCQKRPCGHPGDTPFGTFTLTGGNVFEYGVKAVYTCNEGYQLLGEINYRECDTDGWTNDIPICEVVKCLPVTAPENGKIVSSAMEPDREYHFGQAVRFVCNSGYKIEGDEEMHCSDDGFWSKEKPKCVEISCKSPDVINGSPISQKIIYKENERFQYKCNMGYEYSERGDAVCTESGWRPLPSCEEKSCDNPYIPNGDYSPLRIKHRTGDEITYQCRNGFYPATRGNTAKCTSTGWIPAPRCTLKPCDYPDIKHGGLYHENMRRPYFPVAVGKYYSYYCDEHFETPSGSYWDHIHCTQDGWSPAVPCLRKCYFPYLENGYNQNYGRKFVQGKSIDVACHPGYALPKAQTTVTCMENGWSPTPRCIRVKTCSKSSIDIENGFISESQYTYALKEKAKYQCKLGYVTADGETSGSITCGKDGWSAQPTCIKSCDIPVFMNARTKNDFTWFKLNDTLDYECHDGYESNTGSTTGSIVCGYNGWSDLPICYERECELPKIDVHLVPDRKKDQYKVGEVLKFSCKPGFTIVGPNSVQCYHFGLSPDLPICKEQVQSCGPPPELLNGNVKEKTKEEYGHSEVVEYYCNPRFLMKGPNKIQCVDGEWTTLPVCIVEESTCGDIPELEHGWAQLSSPPYYYGDSVEFNCSESFTMIGHRSITCIHGVWTQLPQCVAIDKLKKCKSSNLIILEEHLKNKKEFDHNSNIRYRCRGKEGWIHTVCINGRWDPEVNCSMAQIQLCPPPPQIPNSHNMTTTLNYRDGEKVSVLCQENYLIQEGEEITCKDGRWQSIPLCVEKIPCSQPPQIEHGTINSSRSSQESYAHGTKLSYTCEGGFRISEENETTCYMGKWSSPPQCEGLPCKSPPEISHGVVAHMSDSYQYGEEVTYKCFEGFGIDGPAIAKCLGEKWSHPPSCIKTDCLSLPSFENAIPMGEKKDVYKAGEQVTYTCATYYKMDGASNVTCINSRWTGRPTCRDTSCVNPPTVQNAYIVSRQMSKYPSGERVRYQCRSPYEMFGDEEVMCLNGNWTEPPQCKDSTGKCGPPPPIDNGDITSFPLSVYAPASSVEYQCQNLYQLEGNKRITCRNGQWSEPPKCLHPCVISREIMENYNIALRWTAKQKLYSRTGESVEFVCKRGYRLSSRSHTLRTTCWDGKLEYPTCAKR

More lines, now with the values behind:

B2: recombinant human factor H, Y402 variant, produced in the PER.C6 cell line (other)
chain: EDCNELPPRRNTEILTGSWSDQTYPEGTQAIYKCRPGYRSLGNVIMVCRKGEWVALNPLRKCQKRPCGHPGDTPFGTFTLTGGNVFEYGVKAVYTCNEGYQLLGEINYRECDTDGWTNDIPICEVVKCLPVTAPENGKIVSSAMEPDREYHFGQAVRFVCNSGYKIEGDEEMHCSDDGFWSKEKPKCVEISCKSPDVINGSPISQKIIYKENERFQYKCNMGYEYSERGDAVCTESGWRPLPSCEEKSCDNPYIPNGDYSPLRIKHRTGDEITYQCRNGFYPATRGNTAKCTSTGWIPAPRCTLKPCDYPDIKHGGLYHENMRRPYFPVAVGKYYSYYCDEHFETPSGSYWDHIHCTQDGWSPAVPCLRKCYFPYLENGYNQNYGRKFVQGKSIDVACHPGYALPKAQTTVTCMENGWSPTPRCIRVKTCSKSSIDIENGFISESQYTYALKEKAKYQCKLGYVTADGETSGSITCGKDGWSAQPTCIKSCDIPVFMNARTKNDFTWFKLNDTLDYECHDGYESNTGSTTGSIVCGYNGWSDLPICYERECELPKIDVHLVPDRKKDQYKVGEVLKFSCKPGFTIVGPNSVQCYHFGLSPDLPICKEQVQSCGPPPELLNGNVKEKTKEEYGHSEVVEYYCNPRFLMKGPNKIQCVDGEWTTLPVCIVEESTCGDIPELEHGWAQLSSPPYYYGDSVEFNCSESFTMIGHRSITCIHGVWTQLPQCVAIDKLKKCKSSNLIILEEHLKNKKEFDHNSNIRYRCRGKEGWIHTVCINGRWDPEVNCSMAQIQLCPPPPQIPNSHNMTTTLNYRDGEKVSVLCQENYLIQEGEEITCKDGRWQSIPLCVEKIPCSQPPQIEHGTINSSRSSQESYAHGTKLSYTCEGGFRISEENETTCYMGKWSSPPQCEGLPCKSPPEISHGVVAHMSDSYQYGEEVTYKCFEGFGIDGPAIAKCLGEKWSHPPSCIKTDCLSLPSFENAIPMGEKKDVYKAGEQVTYTCATYYKMDGASNVTCINSRWTGRPTCRDTSCVNPPTVQNAYIVSRQMSKYPSGERVRYQCRSPYEMFGDEEVMCLNGNWTEPPQCKDSTGKCGPPPPIDNGDITSFPLSVYAPASSVEYQCQNLYQLEGNKRITCRNGQWSEPPKCLHPCVISREIMENYNIALRWTAKQKLYSRTGESVEFVCKRGYRLSSRSHTLRTTCWDGKLEYPTCAKR
IC50, acceleration of the dissociation of C3 convertase (culture supernatant PERC6 MD2-Y402) [1]: 0.0487 mg/L | IC50, acceleration of the dissociation of C3 convertase (culture supernatant PERC6 MD3-Y402) [1]: 0.0559 mg/L | IC50, acceleration of the dissociation of C3 convertase (sample: Purified FH PER.C6) [2]: 0.0451 mg/L

B3: recombinant human factor H, H402 variant, produced in the PER.C6 cell line (other)
chain: EDCNELPPRRNTEILTGSWSDQTYPEGTQAIYKCRPGYRSLGNVIMVCRKGEWVALNPLRKCQKRPCGHPGDTPFGTFTLTGGNVFEYGVKAVYTCNEGYQLLGEINYRECDTDGWTNDIPICEVVKCLPVTAPENGKIVSSAMEPDREYHFGQAVRFVCNSGYKIEGDEEMHCSDDGFWSKEKPKCVEISCKSPDVINGSPISQKIIYKENERFQYKCNMGYEYSERGDAVCTESGWRPLPSCEEKSCDNPYIPNGDYSPLRIKHRTGDEITYQCRNGFYPATRGNTAKCTSTGWIPAPRCTLKPCDYPDIKHGGLYHENMRRPYFPVAVGKYYSYYCDEHFETPSGSYWDHIHCTQDGWSPAVPCLRKCYFPYLENGYNQNHGRKFVQGKSIDVACHPGYALPKAQTTVTCMENGWSPTPRCIRVKTCSKSSIDIENGFISESQYTYALKEKAKYQCKLGYVTADGETSGSITCGKDGWSAQPTCIKSCDIPVFMNARTKNDFTWFKLNDTLDYECHDGYESNTGSTTGSIVCGYNGWSDLPICYERECELPKIDVHLVPDRKKDQYKVGEVLKFSCKPGFTIVGPNSVQCYHFGLSPDLPICKEQVQSCGPPPELLNGNVKEKTKEEYGHSEVVEYYCNPRFLMKGPNKIQCVDGEWTTLPVCIVEESTCGDIPELEHGWAQLSSPPYYYGDSVEFNCSESFTMIGHRSITCIHGVWTQLPQCVAIDKLKKCKSSNLIILEEHLKNKKEFDHNSNIRYRCRGKEGWIHTVCINGRWDPEVNCSMAQIQLCPPPPQIPNSHNMTTTLNYRDGEKVSVLCQENYLIQEGEEITCKDGRWQSIPLCVEKIPCSQPPQIEHGTINSSRSSQESYAHGTKLSYTCEGGFRISEENETTCYMGKWSSPPQCEGLPCKSPPEISHGVVAHMSDSYQYGEEVTYKCFEGFGIDGPAIAKCLGEKWSHPPSCIKTDCLSLPSFENAIPMGEKKDVYKAGEQVTYTCATYYKMDGASNVTCINSRWTGRPTCRDTSCVNPPTVQNAYIVSRQMSKYPSGERVRYQCRSPYEMFGDEEVMCLNGNWTEPPQCKDSTGKCGPPPPIDNGDITSFPLSVYAPASSVEYQCQNLYQLEGNKRITCRNGQWSEPPKCLHPCVISREIMENYNIALRWTAKQKLYSRTGESVEFVCKRGYRLSSRSHTLRTTCWDGKLEYPTCAKR
IC50, acceleration of the dissociation of C3 convertase (culture supernatant PERC6 MD2-H402) [1]: 0.0546 mg/L
